Measurements from the supplement of paper PMC7125110.
± gives the standard error. For some assays here: Variants at the floor of the assay were thinned out.

B1: glmS ribozyme (parent)
chain: AUAAAAGCGCCAGAACUACAGAAAUGUAGUUGACGAGGAGGAGGUUUAUCGAAUUUUCGGCGGAUGCCUCCAAA

Columns and labels:
Details in all cases: with glucosamine-6-phosphate
[1] = variants of: B1; test: kcat; higher = faster cleavage; RNA array
Procedure, shortened: (§1)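 Weighted Michaelis–Menten fits across concentrations supplied kcat and KM, based on kobs from one- or two-exponential decay fits to normalised per-tile medians. The data came from barcoded ribozyme variants transcribed in situ by E. coli RNA polymerase on sequenced MiSeq chips and tracked at 37 °C by a hybridised Cy3 probe. Glucosamine-6-phosphate (40 μM to 10 mM) in HEPES/KCl/Mg(OAc)2 buffer was flowed in.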

[2] = variants of: B1; test: KM; higher = weaker cofactor use; RNA array
Procedure, shortened: as §1

[3] = variants of: B1; test: self-cleavage kobs at 2500 uM GlcN6P; higher = faster cleavage; RNA array
Procedure, shortened: as §1

[4] = variants of: B1; test: self-cleavage kobs at 10000 uM GlcN6P; higher = faster cleavage; RNA array
Procedure, shortened: as §1

[5] = variants of: B1; test: self-cleavage kobs at 40 uM GlcN6P; higher = faster cleavage; RNA array
Procedure, shortened: as §1

[6] = variants of: B1; test: self-cleavage kobs at 640 uM GlcN6P; higher = faster cleavage; RNA array
Procedure, shortened: as §1

[7] = variants of: B1; test: self-cleavage kobs at 160 uM GlcN6P; higher = faster cleavage; RNA array
Procedure, shortened: as §1

Variant	kcat [1] [s⁻¹]	KM [2] [mM]	self-cleavage kobs at 2500 uM GlcN6P [3] [s⁻¹]	self-cleavage kobs at 10000 uM GlcN6P [4] [s⁻¹]	self-cleavage kobs at 40 uM GlcN6P [5] [s⁻¹]	self-cleavage kobs at 640 uM GlcN6P [6] [s⁻¹]	self-cleavage kobs at 160 uM GlcN6P [7] [s⁻¹]
C58U C71U	8.62e-05 ± 5e-06	3.2 ± 0.56	3.66e-05 ± 7.1e-06	6.56e-05 ± 6e-06			
A6C G7U G35A C58U G60A					< 1e-05	< 1e-05	
U57G C68G	4.47e-05 ± 1.1e-05		5.88e-05 ± 1.3e-05		2.48e-05 ± 1.2e-05	4.72e-05 ± 1.4e-05	4.02e-05 ± 1.5e-05
U57A C58G	7.04e-05 ± 3.8e-06	4.69 ± 0.58	2.42e-05 ± 1.1e-05	4.8e-05 ± 1.2e-05			
G7C C10A G29U A64C			< 1e-05	< 1e-05	< 1e-05		
G66U C67A	0.00338 ± 0.00094	3.02 ± 1.1	0.00197 ± 0.00041	0.00241 ± 0.00063	5.28e-05 ± 1.5e-05	0.0005 ± 9.9e-05	0.000188 ± 5.8e-05
C67A C71G	7.2e-05 ± 7e-06		8.16e-05 ± 8.2e-06	6e-05 ± 6.9e-06		6.96e-05 ± 6.6e-06	5.48e-05 ± 8.6e-06
U2C C11U G40A U45G					< 1e-05		
U56G U65C	0.000622 ± 6.2e-05	6.8 ± 1	0.000169 ± 3.3e-05	0.000366 ± 0.00011			
A6G G51C			< 1e-05		< 1e-05	< 1e-05	< 1e-05
G7A U56C C67U C68U					< 1e-05	< 1e-05	< 1e-05
G7C C11U G40U C71A			< 1e-05	< 1e-05	< 1e-05	< 1e-05	
G7A G60A				< 1e-05	< 1e-05	< 1e-05	< 1e-05
A1C U56G				0.0185 ± 0.0058	0.000433 ± 9.4e-05		
G7A A14C G32U G40A			< 1e-05		< 1e-05		
C58G G66U	1.05e-05 ± 2.2e-06						< 1e-05
U57A G66A	0.000171 ± 2.8e-05	4.04 ± 1.4	6.97e-05 ± 2.3e-05	0.00012 ± 3.2e-05			
A6U G35U			< 1e-05	< 1e-05	< 1e-05	< 1e-05	< 1e-05
G63C U65G	< 1e-05			< 1e-05	< 1e-05		< 1e-05
A6G G29C G51A			< 1e-05	< 1e-05	< 1e-05		

Variant	kcat [1] [s⁻¹]	KM [2] [mM]	self-cleavage kobs at 2500 uM GlcN6P [3] [s⁻¹]	self-cleavage kobs at 10000 uM GlcN6P [4] [s⁻¹]	self-cleavage kobs at 40 uM GlcN6P [5] [s⁻¹]	self-cleavage kobs at 640 uM GlcN6P [6] [s⁻¹]	self-cleavage kobs at 160 uM GlcN6P [7] [s⁻¹]
A6C G7U			< 1e-05	< 1e-05	< 1e-05	< 1e-05	< 1e-05
C67U C70G	2.32e-05 ± 6.8e-06		2.88e-05 ± 6.7e-06			2.59e-05 ± 9e-06	
A6G G40U A48C G62A U65G				< 1e-05	< 1e-05		
G7C G35U			< 1e-05		< 1e-05		< 1e-05
G7A C50U			< 1e-05	< 1e-05	< 1e-05	< 1e-05	< 1e-05
G7C A42G			< 1e-05	< 1e-05	< 1e-05	< 1e-05	< 1e-05
U57C C67U	6.51e-05 ± 8.2e-06		3.71e-05 ± 7.6e-06	6.33e-05 ± 5.1e-06		3.88e-05 ± 8.6e-06	
A6G A48U G66U U69C				< 1e-05	< 1e-05		
U69C C70U	0.000681 ± 0.00015	0.854 ± 0.35	0.000524 ± 7.1e-05	0.000743 ± 0.00018	5.3e-05 ± 1.3e-05	0.000254 ± 3.7e-05	0.000108 ± 2.4e-05
G7A A15C C50U C70A					0.000237 ± 4.9e-05		
G62U C70G	1.57e-05 ± 2.7e-06						
A6U C8A			< 1e-05	< 1e-05	< 1e-05		< 1e-05
A6U G43A U45G U57A G59U				< 1e-05	< 1e-05		
G63U	< 1e-05		< 1e-05	< 1e-05	< 1e-05		< 1e-05
A6U G13C			< 1e-05		< 1e-05	< 1e-05	
G7A A12U A33C C58A A64G				< 1e-05	< 1e-05		
A6C C67G					< 1e-05		
A6G G9C				< 1e-05	< 1e-05		< 1e-05
A6C C16G C71A					< 1e-05		
